B1: PLAGL1 (parent)
chain: LELGSTEVLLDHLKAHAEEKPPSG

Variants of: B1
Experiment: protein stability index of a GFP-peptide fusion (GPS, HEK-293T) (PSI 1-6); higher = more stable
Conditions: c terminus: a fixed tail appended
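Also: lentivirally expressed fusions sorted by FACS into six bins by GFP to DsRed ratio, PSI derived from sequencing read proportions per bin multiplied by bin number.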

Variant	protein stability index
LELGSTEVWLDHLKAHAEEKPPSG [L9W]	4.11
LELGSTEVILDHLKAHAEEKPPSG [L9I]	4.45
LELGSTEVQLDHLKAHAEEKPPSG [L9Q]	5.84
LELGSTEVMLDHLKAHAEEKPPSG [L9M]	4.77
LELGSTEVTLDHLKAHAEEKPPSG [L9T]	5.58
LELGSTEVKLDHLKAHAEEKPPSG [L9K]	4.99
LELGSTEVYLDHLKAHAEEKPPSG [L9Y]	4.83
LELGSTEVGLDHLKAHAEEKPPSG [L9G]	5.6
LELGSTEVELDHLKAHAEEKPPSG [L9E]	5.92
LELGSTEVHLDHLKAHAEEKPPSG [L9H]	5.15
LELGSTEVNLDHLKAHAEEKPPSG [L9N]	5.71
LELGSTEVRLDHLKAHAEEKPPSG [L9R]	4.63
LELGSTEVALDHLKAHAEEKPPSG [L9A]	5.08
LELGSTEVDLDHLKAHAEEKPPSG [L9D]	4.91
LELGSTEVCLDHLKAHAEEKPPSG [L9C]	5.04
LELGSTEVFLDHLKAHAEEKPPSG [L9F]	4.79
LELGSTEVSLDHLKAHAEEKPPSG [L9S]	5.72
LELGSTEVVLDHLKAHAEEKPPSG [L9V]	4.97
LELGSTEVPLDHLKAHAEEKPPSG [L9P]	5.57
LELGSTEVLLDHLIAHAEEKPPSG [K14I]	4.55
LELGSTEVLLDHLFAHAEEKPPSG [K14F]	3.5
LELGSTEVLLDHLGAHAEEKPPSG [K14G]	5.39
LELGSTEVLLDHLMAHAEEKPPSG [K14M]	3.6
LELGSTEVLLDHLQAHAEEKPPSG [K14Q]	4.59

Variant	protein stability index
LELGSTEVLLDHLCAHAEEKPPSG [K14C]	4.69
LELGSTEVLLDHLHAHAEEKPPSG [K14H]	5.15
LELGSTEVLLDHLSAHAEEKPPSG [K14S]	5.04
LELGSTEVLLDHLAAHAEEKPPSG [K14A]	4.93
LELGSTEVLLDHLNAHAEEKPPSG [K14N]	5.04
LELGSTEVLLDHLEAHAEEKPPSG [K14E]	5.5
LELGSTEVLLDHLDAHAEEKPPSG [K14D]	5.56
LELGSTEVLLDHLLAHAEEKPPSG [K14L]	4.61
LELGSTEVLLDHLPAHAEEKPPSG [K14P]	5.32
LELGSTEVLLDHLRAHAEEKPPSG [K14R]	3.5
LELVSTEVLLDHLKAHAEEKPPSG [G4V]	3.28
LELWSTEVLLDHLKAHAEEKPPSG [G4W]	2.2
LELYSTEVLLDHLKAHAEEKPPSG [G4Y]	2.19
LELTSTEVLLDHLKAHAEEKPPSG [G4T]	3.95
LELGSTEVLLDCLKAHAEEKPPSG [H12C]	4.32
LELGSTEVLLDILKAHAEEKPPSG [H12I]	3.02
LELGSTEVLLDSLKAHAEEKPPSG [H12S]	4.9
LELGSTEVLLDKLKAHAEEKPPSG [H12K]	3.99
LELGSTEVLLDWLKAHAEEKPPSG [H12W]	3
LELGSTEVLLDRLKAHAEEKPPSG [H12R]	4.37
LELGSTEVLLDYLKAHAEEKPPSG [H12Y]	2.44
LELGSTEVLLDVLKAHAEEKPPSG [H12V]	3.26
LELGSTEVLLDGLKAHAEEKPPSG [H12G]	5.16
LELGSTEVLLDMLKAHAEEKPPSG [H12M]	3.06

Variant	protein stability index
LELGSTEVLLDLLKAHAEEKPPSG [H12L]	2.21
LELGSTEVLLDELKAHAEEKPPSG [H12E]	5.54
LELGSTEVLLDDLKAHAEEKPPSG [H12D]	5.18
LELGSTEVLLDTLKAHAEEKPPSG [H12T]	4.62
LELGSTEVLLDFLKAHAEEKPPSG [H12F]	2.71
LELGSTEVLLDALKAHAEEKPPSG [H12A]	3.98
LELGSTEVLLDPLKAHAEEKPPSG [H12P]	5.48
LELGSTEVLLDNLKAHAEEKPPSG [H12N]	5.15
LELGSTEVLLDQLKAHAEEKPPSG [H12Q]	4.82
LELGSTYVLLDHLKAHAEEKPPSG [E7Y]	3.77
LELGSTQVLLDHLKAHAEEKPPSG [E7Q]	4.89
LELGSTAVLLDHLKAHAEEKPPSG [E7A]	4.78
LELGSTSVLLDHLKAHAEEKPPSG [E7S]	4.81
LELGSTDVLLDHLKAHAEEKPPSG [E7D]	5.27
LELGSTVVLLDHLKAHAEEKPPSG [E7V]	3.82
LELGSTHVLLDHLKAHAEEKPPSG [E7H]	4.39
LELGSTFVLLDHLKAHAEEKPPSG [E7F]	3.86
LELGSTRVLLDHLKAHAEEKPPSG [E7R]	4.81
LELGSTCVLLDHLKAHAEEKPPSG [E7C]	4.27
LELGSTPVLLDHLKAHAEEKPPSG [E7P]	5.07
LELGSTTVLLDHLKAHAEEKPPSG [E7T]	4.24
LELGSTIVLLDHLKAHAEEKPPSG [E7I]	3.69
LELGSTWVLLDHLKAHAEEKPPSG [E7W]	3.04
LELGSTGVLLDHLKAHAEEKPPSG [E7G]	4.89

Variant	protein stability index
LELGSTLVLLDHLKAHAEEKPPSG [E7L]	3.41
LELGSTKVLLDHLKAHAEEKPPSG [E7K]	3.85
LELGSTMVLLDHLKAHAEEKPPSG [E7M]	3.54
LELGSTNVLLDHLKAHAEEKPPSG [E7N]	4.67
LELGSTEPLLDHLKAHAEEKPPSG [V8P]	4.84
LELGSTEWLLDHLKAHAEEKPPSG [V8W]	3.79
LELGSTETLLDHLKAHAEEKPPSG [V8T]	5
LELGSTEHLLDHLKAHAEEKPPSG [V8H]	4.55
LELGSTEDLLDHLKAHAEEKPPSG [V8D]	5.01
LELGSTELLLDHLKAHAEEKPPSG [V8L]	3.21
LELGSTEYLLDHLKAHAEEKPPSG [V8Y]	4.62
LELGSTEFLLDHLKAHAEEKPPSG [V8F]	3.85
LELGSTESLLDHLKAHAEEKPPSG [V8S]	4.87
LELGSTEALLDHLKAHAEEKPPSG [V8A]	4.64
LELGSTEQLLDHLKAHAEEKPPSG [V8Q]	4.75
LELGSTEELLDHLKAHAEEKPPSG [V8E]	5.29
LELGSTECLLDHLKAHAEEKPPSG [V8C]	4.41
LELGSTEKLLDHLKAHAEEKPPSG [V8K]	4.51
LELGSTEILLDHLKAHAEEKPPSG [V8I]	3.91
LELGSTEMLLDHLKAHAEEKPPSG [V8M]	3.54
LELGSTERLLDHLKAHAEEKPPSG [V8R]	4.96
LELGSTENLLDHLKAHAEEKPPSG [V8N]	4.85
LELGSTEVLLDHAKAHAEEKPPSG [L13A]	5.38
LELGSTEVLLDHYKAHAEEKPPSG [L13Y]	3.9

Variant	protein stability index
LELGSTEVLLDHNKAHAEEKPPSG [L13N]	5.64
LELGSTEVLLDHDKAHAEEKPPSG [L13D]	5.87
LELGSTEVLLDHKKAHAEEKPPSG [L13K]	5.68
LELGSTEVLLDHEKAHAEEKPPSG [L13E]	5.3
LELGSTEVLLDHPKAHAEEKPPSG [L13P]	5.35
LELGSTEVLLDHIKAHAEEKPPSG [L13I]	4.97
LELGSTEVLLDHVKAHAEEKPPSG [L13V]	4.36
LELGSTEVLLDHQKAHAEEKPPSG [L13Q]	5.76
LELGSTEVLLDHGKAHAEEKPPSG [L13G]	5.46
LELGSTEVLLDHHKAHAEEKPPSG [L13H]	5.61
LELGSTEVLLDHCKAHAEEKPPSG [L13C]	4.84
LELGSTEVLLDHFKAHAEEKPPSG [L13F]	4.22
LELGSTEVLLDHWKAHAEEKPPSG [L13W]	3.78
LELGSTEVLLDHRKAHAEEKPPSG [L13R]	5.6
LELGSTEVLLDHSKAHAEEKPPSG [L13S]	5.6
LELGSTEVLLDHMKAHAEEKPPSG [L13M]	5.09
LELGSTEVLLDHTKAHAEEKPPSG [L13T]	5.46
LELGSTEVLEDHLKAHAEEKPPSG [L10E]	4.86
LELGSTEVLQDHLKAHAEEKPPSG [L10Q]	5.41
LELGSTEVLTDHLKAHAEEKPPSG [L10T]	5.87
LELGSTEVLDDHLKAHAEEKPPSG [L10D]	5.35
LELGSTEVLNDHLKAHAEEKPPSG [L10N]	5.74
LELGSTEVLGDHLKAHAEEKPPSG [L10G]	5.66
LELGSTEVLIDHLKAHAEEKPPSG [L10I]	4.07

Variant	protein stability index
LELGSTEVLKDHLKAHAEEKPPSG [L10K]	5.83
LELGSTEVLFDHLKAHAEEKPPSG [L10F]	5.3
LELGSTEVLMDHLKAHAEEKPPSG [L10M]	5.42
LELGSTEVLCDHLKAHAEEKPPSG [L10C]	5.35
LELGSTEVLPDHLKAHAEEKPPSG [L10P]	5.36
LELGSTEVLHDHLKAHAEEKPPSG [L10H]	5.35
LELGSTEVLRDHLKAHAEEKPPSG [L10R]	5.62
LELGSTEVLYDHLKAHAEEKPPSG [L10Y]	5.26
LELGSTEVLVDHLKAHAEEKPPSG [L10V]	5.1
LELGSTEVLADHLKAHAEEKPPSG [L10A]	5.72
LELGSTEVLSDHLKAHAEEKPPSG [L10S]	5.42
LELGSTEVLWDHLKAHAEEKPPSG [L10W]	4.81
LELGSTEVLLGHLKAHAEEKPPSG [D11G]	3.56
LELGSTEVLLFHLKAHAEEKPPSG [D11F]	1.77
LELGSTEVLLRHLKAHAEEKPPSG [D11R]	3.46
LELGSTEVLLWHLKAHAEEKPPSG [D11W]	3.03
LELGSTEVLLIHLKAHAEEKPPSG [D11I]	1.25
LELGSTEVLLTHLKAHAEEKPPSG [D11T]	3.07
LELGSTEVLLPHLKAHAEEKPPSG [D11P]	5.43
LELGSTEVLLQHLKAHAEEKPPSG [D11Q]	2.17
LELGSTEVLLEHLKAHAEEKPPSG [D11E]	3.56
LELGSTEVLLCHLKAHAEEKPPSG [D11C]	2.36
LELGSTEVLLNHLKAHAEEKPPSG [D11N]	4.29
LELGSTEVLLAHLKAHAEEKPPSG [D11A]	4

Variant	protein stability index
LELGSTEVLLHHLKAHAEEKPPSG [D11H]	3.79
LELGSTEVLLKHLKAHAEEKPPSG [D11K]	3.65
LELGSTEVLLLHLKAHAEEKPPSG [D11L]	1.79
LELGSTEVLLVHLKAHAEEKPPSG [D11V]	1.86
LELGSTEVLLMHLKAHAEEKPPSG [D11M]	2.2
LELGSTEVLLYHLKAHAEEKPPSG [D11Y]	2.7
LELGSTEVLLSHLKAHAEEKPPSG [D11S]	3.54
LELGRTEVLLDHLKAHAEEKPPSG [S5R]	3.5
LELGETEVLLDHLKAHAEEKPPSG [S5E]	3.8
LELGHTEVLLDHLKAHAEEKPPSG [S5H]	4.84
LELGLTEVLLDHLKAHAEEKPPSG [S5L]	2.53
LELGYTEVLLDHLKAHAEEKPPSG [S5Y]	3.33
LELGQTEVLLDHLKAHAEEKPPSG [S5Q]	2.92
LELGVTEVLLDHLKAHAEEKPPSG [S5V]	3.79
LELGTTEVLLDHLKAHAEEKPPSG [S5T]	4.44
LELGFTEVLLDHLKAHAEEKPPSG [S5F]	3.09
LELGGTEVLLDHLKAHAEEKPPSG [S5G]	4.56
LELGNTEVLLDHLKAHAEEKPPSG [S5N]	5.08
LELGWTEVLLDHLKAHAEEKPPSG [S5W]	2.97
LELGATEVLLDHLKAHAEEKPPSG [S5A]	3.22
LELGDTEVLLDHLKAHAEEKPPSG [S5D]	4.84
LELGPTEVLLDHLKAHAEEKPPSG [S5P]	4.79
LELGCTEVLLDHLKAHAEEKPPSG [S5C]	4.51
LELGITEVLLDHLKAHAEEKPPSG [S5I]	4.15

Variant	protein stability index
LELGKTEVLLDHLKAHAEEKPPSG [S5K]	3.85
LELGMTEVLLDHLKAHAEEKPPSG [S5M]	2.3
LELGSGEVLLDHLKAHAEEKPPSG [T6G]	4.75
LELGSCEVLLDHLKAHAEEKPPSG [T6C]	4.38
LELGSSEVLLDHLKAHAEEKPPSG [T6S]	4.71
LELGSWEVLLDHLKAHAEEKPPSG [T6W]	2.89
LELGSAEVLLDHLKAHAEEKPPSG [T6A]	3.58
LELGSNEVLLDHLKAHAEEKPPSG [T6N]	4.76
LELGSFEVLLDHLKAHAEEKPPSG [T6F]	3.62
LELGSIEVLLDHLKAHAEEKPPSG [T6I]	3.4
LELGSEEVLLDHLKAHAEEKPPSG [T6E]	5.49
LELGSKEVLLDHLKAHAEEKPPSG [T6K]	5.38
LELGSQEVLLDHLKAHAEEKPPSG [T6Q]	5.22
LELGSHEVLLDHLKAHAEEKPPSG [T6H]	5.42
LELGSVEVLLDHLKAHAEEKPPSG [T6V]	4.24
LELGSLEVLLDHLKAHAEEKPPSG [T6L]	2.84
LELGSPEVLLDHLKAHAEEKPPSG [T6P]	4.25
LELGSYEVLLDHLKAHAEEKPPSG [T6Y]	3.76
LELGSMEVLLDHLKAHAEEKPPSG [T6M]	3.74
LELGSREVLLDHLKAHAEEKPPSG [T6R]	4.57

— the supplement of paper PMC10567573
